Test results reported in patent US20240101692A1 (CEMM FORSCHUNGSZENTRUM F R MOLEKULARE MEDIZIN, published 2024).

Assays:
[1] = target: heparan sulfate proteoglycan 2 (human, UniProt P98160 22-4391); experiment: confocal microscopy of human coronary artery specimens stained with Aprily 2 and anti-HSPG2
[2] = target: T1, Fc-hAPRIL C-terminal truncation ps4187 (aa 98-230) (human, UniProt O75888 115-247); experiment: sandwich ELISA on supernatant of transfected cells, capture Aprily5, detection Aprily 1-biot
T1 construct: also called Fc-APRIL-ps4187
T1 sequence: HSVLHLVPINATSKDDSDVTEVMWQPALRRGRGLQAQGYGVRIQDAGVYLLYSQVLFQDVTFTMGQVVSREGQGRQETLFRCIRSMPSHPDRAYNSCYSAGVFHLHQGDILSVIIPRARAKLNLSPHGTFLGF

Fc-hAPRIL WT (ps1307) [3] = target: T2, Fc-hAPRIL WT (ps1307) (human, UniProt O75888 115-250); experiment: as above
T2 construct: APRIL residues are counted from Met18; also called Fc-APRIL-ps1307
T2 sequence: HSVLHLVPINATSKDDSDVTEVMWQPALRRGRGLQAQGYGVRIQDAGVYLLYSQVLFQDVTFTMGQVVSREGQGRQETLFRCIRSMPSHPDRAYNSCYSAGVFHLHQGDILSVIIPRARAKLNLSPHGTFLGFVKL

[4] = target: T3, Fc-hAPRIL C-terminal truncation ps4188 (aa 98-229) (human, UniProt O75888 115-246); experiment: as above
T3 construct: also called Fc-APRIL-ps4188
T3 sequence: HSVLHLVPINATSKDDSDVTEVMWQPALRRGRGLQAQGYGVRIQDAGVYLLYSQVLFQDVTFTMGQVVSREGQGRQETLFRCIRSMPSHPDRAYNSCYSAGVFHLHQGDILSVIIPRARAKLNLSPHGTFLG

[5] = target: T4, Fc-hAPRIL C-terminal truncation ps4185 (aa 98-232) (human, UniProt O75888 115-249); experiment: as above
T4 construct: also called Fc-APRIL-ps4185
T4 sequence: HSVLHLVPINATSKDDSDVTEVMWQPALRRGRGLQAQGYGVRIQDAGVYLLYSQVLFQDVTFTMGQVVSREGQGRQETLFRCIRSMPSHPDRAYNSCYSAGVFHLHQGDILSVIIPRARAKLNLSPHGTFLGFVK

[6] = target: T5, Fc-hAPRIL C-terminal truncation ps4186 (aa 98-231) (human, UniProt O75888 115-248); experiment: as above
T5 construct: also called Fc-APRIL-ps4186
T5 sequence: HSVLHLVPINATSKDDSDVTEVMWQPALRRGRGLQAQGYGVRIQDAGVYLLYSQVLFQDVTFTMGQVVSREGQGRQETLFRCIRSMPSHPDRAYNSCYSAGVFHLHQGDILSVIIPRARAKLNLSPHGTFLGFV

Flag-mouse APRIL = target: T6, Flag-mouse APRIL (mouse, UniProt Q9D777 96-241, limits assumed); experiment: Western blot of 50 ng Flag-mAPRIL after SDS-PAGE
T6 construct: Denatured in the assay (SDS-PAGE and Western blot)
T6 sequence (looked up): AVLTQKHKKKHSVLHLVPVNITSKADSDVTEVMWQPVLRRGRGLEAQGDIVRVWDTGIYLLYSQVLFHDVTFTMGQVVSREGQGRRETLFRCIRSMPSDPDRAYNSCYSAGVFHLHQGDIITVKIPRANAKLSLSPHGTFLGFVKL
Description: 50 ng of Flag-mouse APRIL “m” or Flag-human APRIL “h” were analyzed by SDS-PAGE on a 12% acrylamide gel, followed by Western blotting with the indicated anti-APRIL antibodies at 1 μg/ml, followed by HRP-coupled anti-mouse secondary reagent, or with a biotinylated anti-Flag antibody (M2-biot) followed by HRP-coupled streptavidin. The micration of molecular weight markers (in kDa) are indicated on the left-hand side.

[7] = target: T1, Fc-hAPRIL C-terminal truncation ps4187 …; experiment: sandwich ELISA on supernatant of transfected cells, capture Aprily5, detection Aprily2-biot
Fc-hAPRIL WT (ps1307) [8] = target: T2, Fc-hAPRIL WT (ps1307); experiment: as above
[9] = target: T3, Fc-hAPRIL C-terminal truncation ps4188 …; experiment: as above
[10] = target: T4, Fc-hAPRIL C-terminal truncation ps4185 …; experiment: as above
[11] = target: T5, Fc-hAPRIL C-terminal truncation ps4186 …; experiment: as above

Row | binding result [1] | binding result [2] | binding result (Fc-hAPRIL WT (ps1307) [3]) | binding result [4] | binding result [5] | binding result [6] | binding result (Flag-mouse APRIL) | binding result [7] | binding result (Fc-hAPRIL WT (ps1307) [8]) | binding result [9] | binding result [10] | binding result [11] | Binder
1 | binds | – | – | – | – | – | – | – | – | – | – | – | APRIL in human arteries (ligand, Endogenous protein in tissue sections) AVLTQKQKKQHSVLHLVPINATSKDDSDVTEVMWQPALRRGRGLQAQGYGVRIQDAGVYLLYSQVLFQDVTFTMGQVVSREGQGRQETLFRCIRSMPSHPDRAYNSCYSAGVFHLHQGDILSVIIPRARAKLNLSPHGTFLGFVKL
2 | – | binds | binds | binds | binds | binds | no binding (tested: 1 µg/ml) | – | – | – | – | – | Aprily 1 (antibody, V domains shown, Anti-human APRIL monoclonal antibody; Used biotinylated as detection antibody in some ELISAs; also called Aprily 1-biot) VH: QIQLVQSGPELKKPGETVRISCKASGYNFKTSGMSWVKQAPGKGLKWMGWIDTYAGVPTYTDDFKGRFVFSLETSATTAFLQINNLKNEDTGTYFCAREPGTDNWGQGTSLTVSS VL: not shown
3 | – | – | – | – | – | – | no binding (tested: 1 µg/ml) | binds | binds | binds | binds | binds | Aprily 2 (antibody, V domains shown, Anti-human APRIL monoclonal antibody; Used coupled to beads for depletion and biotinylated for detection; also called Aprily 2-biot) VH: QIQLVQSGPELKKPGETVRISCKASGYTFKTSGMSWVKQAPGKGLKWMGWIDAYAGIPTYTDDFKGRFAFSLDTSATTAFLQINNLKNEDTGTYFCAREPGTDNWGQGTSLTVSS VL: not shown
